Reference: the RNAGym collection of RNA variant scans (doi:10.1021/acssynbio.7b00057)

B1: Pistol ribozyme (parent)
chain: GGGUCGUUGUUCCAUAAUCGCGUGGAUAUGGCACGCAAGUUUCUACCGGGCACCGUAAAUGUCCGACUGGAGCCGUUCGGGCGGCUAUAAACAGACCUCAGGCCCGAAGCGUGGCGGCACCUGCCGCCGGUGGUAAAAAAGAUCGGAAGAGCACACGUCU

Variants of: B1
Assay: aptazyme ON/OFF ratio, guanine; higher = stronger switching; co-transcriptional cleavage with and without guanine

| Variant | aptazyme ON/OFF ratio |
| --- | --- |
| U7G U8C U10A U11G | 1.29 |
| U7C U8G G9U U11A C12U | 1.39 |
| U7C U10G U11A C12A C13U | 1.09 |
| U8G U10A C13A | 1.14 |
| U7C U8G G9C U10A C12G C13U | 1.19 |
| U7C U8A G9A C13A | 1.15 |
| U7C U8C G9U U11G C12G C13A | 1.09 |
| U7A U11A C12U C13A | 1.26 |
| U7A U8C G9A U10C C12G C13U | 1.23 |
| U7G U8G G9U U11A C13U | 1.38 |
| U8C G9U U11G C13U | 1.23 |
| U8A U10C U11G C13U | 1.19 |
| U7C U8C G9C U10G U11A | 1.3 |
| U7C G9U U10C U11C C13A | 1 |
| U7A U8C G9A U10C C12A | 1.21 |
| U7A U8A G9C U10C C13G | 1 |
| U7G U8G G9A U10G U11G | 1.61 |
| U7G U8C U10A C12A C13G | 1.1 |
| U7A U8A U10G U11G C12G | 1.33 |
| U7C U10C C12G C13A | 1.23 |
| U7A U8C U10C U11C C12G C13A | 1.12 |

| Variant | aptazyme ON/OFF ratio |
| --- | --- |
| U7G G9C U10C C12G | 1.29 |
| U7A U10A U11C C12G C13U | 1.1 |
| U7G U8G G9U U10G C12A | 1.44 |
| U7A U8G G9A U10A C12U C13A | 1.38 |
| U8G G9U U10C U11G C12U C13G | 1.09 |
| U7G U8C U10C U11G C12G C13U | 1.07 |
| U8A G9A U10C U11A C12U C13U | 1.33 |
| U7G U8G G9A U11A C12G C13U | 1.15 |
| U7A U8C G9A U10C C13U | 1.12 |
| U8A G9C U10C C12U | 1.06 |
| U7A U8A U11A C12A C13G | 1.28 |
| U8A G9A U10G U11C C13U | 1.04 |
| U7C U8C C12A C13G | 1.1 |
| G9U U11C C12A C13A | 1.48 |
| U7G U8C G9C U10G U11C C12G | 1.21 |
| U7A U8G U10A U11G C12A | 1.43 |
| U8G U10C U11G | 1.75 |
| U7C U8G G9U U10A U11G C12G | 1.23 |
| G9A U10A U11A C12G C13U | 1.23 |
| U7C U8G G9C U11G C12A | 1.12 |
| U7G G9U U10C U11A C12G | 1.57 |

| Variant | aptazyme ON/OFF ratio |
| --- | --- |
| U7G U8C G9C U10G U11G C13G | 1.12 |
| U8A U10G C12A C13G | 1.09 |
| U8G G9C U10C U11G C13U | 1.16 |
| U7G G9C U10G U11C C12U C13U | 1.19 |
| U7A U8G G9U U10C U11G C12U C13U | 1.53 |
| U7G U10G C12U | 1.39 |
| U7A U8G G9U U10A U11C C12A C13G | 1.2 |
| U7A U8A G9A U10A U11A C12A C13A | 1.35 |
| U7C U8C G9A U11A C12A C13A | 1.43 |
| U7C U8A U10A U11G C12G | 1.19 |
| U7G C12U | 1.39 |
| U7G U8A G9A C12U C13A | 1.13 |
| U8C G9U U10A C12A | 1.8 |
| U7C U8G G9A U11G C12A C13U | 1.19 |
| U7G G9U U11A C12A | 1.56 |
| U7A U8G G9A U11C C12A C13A | 1.14 |
| U8C U10A U11C C12U | 1.02 |
| U7A U8A G9C C12G | 1.1 |
| U8G G9C U10C | 1.08 |
| G9A U10A U11A C12G | 1.83 |
| U7G U8C U10C U11A C12U C13A | 1.12 |

| Variant | aptazyme ON/OFF ratio |
| --- | --- |
| U7C G9U U11C | 1.12 |
| U8C G9C U10A U11G C12G C13A | 1.19 |
| U7G U8A U10G U11G C13G | 1.43 |
| U7G U8G G9U U10A C12G C13G | 1.09 |
| G9A U10A U11C C12A C13A | 1.38 |
| U7A U8C U10C U11C C12U C13A | 1.06 |
| U10C U11G C12A C13A | 1.27 |
| U7C G9C U11G C12G C13A | 1.08 |
| U8A G9C U11A C12G C13G | 1.17 |
| U7G U8G C12G C13U | 1.37 |
| U7A U8G G9U U10C C12G C13G | 1.16 |
| U7A U8C G9U U11A C12G C13A | 1.14 |
| U7G U8A G9U U10G U11A C12G | 1.09 |
| G9U U11G C12U C13U | 1.29 |
| U7G G9C U10A U11A C12G C13U | 1.27 |
| U8A G9U U10C U11C C12G C13G | 1.08 |
| U7G U8C G9U U10A C12A C13U | 1.24 |
| U8A U10G U11C C12U C13U | 1.2 |
| U7C U8C G9C U10C U11C C12U | 1.06 |
| U7A U8A U10C | 3.05 |
| U7C U8G G9A U10A U11C C13U | 1.04 |
